The target of data set [1] is wild-type N-terminus of human histone H3 peptide (aa 1-20).
The target of data set [2] is T1, N-terminus of rat macro-H2A peptide.
T1 chain: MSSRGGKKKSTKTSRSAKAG

The target of data set [3] is T2, mutated H3 (K9L) N-terminal peptide.
T2 chain: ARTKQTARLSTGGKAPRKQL

For data set [4], the target named is T3, N-terminus of human CENP-A peptide.
T3 chain: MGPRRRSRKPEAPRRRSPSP

B1: murine GST-Suv39h1 product comprising aa 7-221 (protein)
chain: GCSVCCKSSWNQLQDLCRLAKLSCPALGVSKKNLYDFEVEYLCDYKKIREQEYYLVKWRGYPDSENTWEPRQNLKCIRVLKQFHKDLERELVRRHRRSKPPRHLDPNLANYLVQKAKQRRALQRWEQELNAKRSHLGRITVENEVDLDGPPRSFVYINEYRVGEGITLNQVAVGCECQDCLLAPTGGCCPGASLHKFAYNDQGQVRLKAGQPIYE
Consider B1, for which, in the data set with histone H3, the “in vitro HMTase activity (free histones, fluorography)” value is “proved negative, even at higher protein concentrations”.

B2: triple myc-tagged full-length human SUV39H1 (aa 3-412) (protein)
chain: ENLKGCSVCCKSSWNQLQDLCRLAKLSCPALGISKRNLYDFEVEYLCDYKKIREQEYYLVKWRGYPDSESTWEPRQNLKCVRILKQFHKDLERELLRRHHRSKTPRHLDPSLANYLVQKAKQRRALRRWEQELNAKRSHLGRITVENEVDLDGPPRAFVYINEYRVGEGITLNQVAVGCECQDCLWAPTGGCCPGASLHKFAYNDQGQVRLRAGLPIYECNSRCRCGYDCPNRVVQKGIRYDLCIFRTDDGRGWGVRTLEKIRKNSFVMEYVGEIITSEEAERRGQIYDRQGATYLFDLDYVEDVYTVDAAYYGNISHFVNHSCDPNLQVYNVFIDNLDERLPRIAFFATRTIRAGEELTFDYNMQVDPVDMESTRMDSNFGLAGLPGSPKKRVRIECKCGTESCRKYLF
Regarding B2, the “in vitro HMTase activity (transfer of 14C-methyl label to free histones, fluorography)” value in the data set with histone H3 is listed as “indicating selective transfer of the methyl-label to H3”.

B3: triple myc-tagged C-terminally truncated SUV39H1 protein (aa 3-118) (protein)
chain: ENLKGCSVCCKSSWNQLQDLCRLAKLSCPALGISKRNLYDFEVEYLCDYKKIREQEYYLVKWRGYPDSESTWEPRQNLKCVRILKQFHKDLERELLRRHHRSKTPRHLDPSLANYL
For B3, the “in vitro HMTase activity (transfer of 14C-methyl label to free histones, fluorography)” value in the data set with histone H3 is “no signals were detected with extracts from a HeLa cell line that expresses only the N-terminal third of SUV39H1 (aa 3-118)”.

B4: murine GST-Suv39h1(aa 82-412) (protein)
chain: CIRVLKQFHKDLERELVRRHRRSKPPRHLDPNLANYLVQKAKQRRALQRWEQELNAKRSHLGRITVENEVDLDGPPRSFVYINEYRVGEGITLNQVAVGCECQDCLLAPTGGCCPGASLHKFAYNDQGQVRLKAGQPIYECNSRCCCGYDCPNRVVQKGIRYDLCIFRTNDGRGWGVRTLEKIRKNSFVMEYVGEIITSEEAERRGQIYDRQGATYLFDLDYVEDVYTVDAAYYGNISHFVNHSCDPNLQVYNVFIDNLDERLPRIAFFATRTIWAGEELTFDYNMQVDPVDMESTRMDSNFGLAGLPGSPKKRVRIECKCGTTACRKYLF
In the case of B4, the “3H-incorporation of individual amino acids (microsequencing of the in vitro methylated peptide, scintillation counting)” value in data set [1] was “The results confirmed selective transfer of methyl-label to lysine 9”. Also, the “in vitro methylation of N-terminal peptides (SDS-PAGE, fluorography)” value in data set [1] is on record as “selective methylation of the wild-type H3 peptide”; in data set [2], “no signals were detected with the CENP-A or macroH2A peptides, or with insulin”; with insulin, “no signals were detected with the CENP-A or macroH2A peptides, or with insulin”; in data set [3] it was “the mutated H3 (K9L) peptide was not a substrate”; in data set [4] it was “no signals were detected with the CENP-A or macroH2A peptides, or with insulin”. The “in vitro methylation of individual histones (fluorography)” value with histone H4 is listed as “no signals are detected with H2A, H2B or H4”; in the data set with histone H2B, “no signals are detected with H2A, H2B or H4”; in the data set with histone H2A, “no signals are detected with H2A, H2B or H4”; in the data set with histone H1, “A weak signal is present if H1 was used as the sole substrate”; in the data set with histone H3 it was “H3 is specifically methylated by GST-Suv39h1(aa 82-412)”. Moreover, the “in vitro HMTase activity (free histones, fluorography)” value in the data set with histone H3 is listed as “maintained HMTase activity (although at a reduced level as compared to transfected SUV39H1)”.

Values taken from patent US20050089880.
